Results taken from PMC9229378, “Copper-67-Labeled Bombesin Peptide for Targeted Radionuclide Therapy of Prostate Cancer” (Pharmaceuticals, 2022).
Where two headings read alike, the source gives them in different places.

How the values were obtained:
[1] = Biodistribution in normal tissues; type: in vivo, C57BL/6 female mice; settings: for tissue uptake at 144 h / tissue uptake at 216 h / tissue uptake at 1 h / tissue uptake at 2 h / tissue uptake at 4 h / tissue uptake at 6 h / tissue uptake at 24 h / tissue uptake at 72 h: female, C57BL/6, mouse, iv, 0.37 MBq, total radioactivity
Protocol: To determine the biodistribution of [^67Cu]Cu-SAR-BBN in normal tissues, 40 female C57BL/6 mice were evaluated in groups of 5 mice at various time points. [^67Cu]Cu-SAR-BBN was prepared in 0.9% saline with a concentration of 0.37 MBq (10 µCi) per 100 µL. Mice (n = 5) were injected with 0.37 MBq radiotracers via tail vein and sacrificed by cervical dislocation at 1 h, 2 h, 4 h, 6 h, 24 h, 3 days, 6 days, and 9 days. Blood, lung, liver, spleen, kidney, muscle, heart, bone, and pancreas were harvested and counted for activity on a gamma counter. The percent injected dose per gram for each tissue of interest (% ID/g) was calculated and expressed as Mean ± SD. All radioactivity measurements were corrected for decay.

[2] = test system: PC-3 tumors; experiment: Therapy study in PC-3 tumor-bearing mice; type: in vivo, athymic nude mice
Protocol: (§1) To assess the therapeutic potential of [^67Cu]Cu-SAR-BBN, athymic nude mice bearing subcutaneous PC-3 tumors with a tumor size of ~150 mm^3 were randomly assigned into 2 groups (n = 12 mice per group). For treatment, mice were dosed intravenously with three injections of 24 MBq [^67Cu]Cu-SAR-BBN on days 0, 2, and 4, followed by a drug-free week before the injections of 24 MBq on days 14, 16, and 18. The total activity injected corresponded to 144 MBq. The control group was injected via tail vein with six injections of 0.9% saline at the same time points. Body weight and tumor volume (through caliper measurements) were monitored and recorded three times a week. Tumor size was calculated by the following formula: L × W^2/2, where L is the long diameter of the tumor and W is the short diameter of the tumor. […] Any remaining mice at day 54 were euthanized, and tumor volume and survival curves were generated and analyzed to evaluate the efficacy of [^67Cu]Cu-SAR-BBN. Percentage tumor growth inhibition was calculated as 100 × (1 − ΔT/ΔC), where ΔC and ΔT were determined by subtracting the mean tumor volume (in the vehicle control and treated group, respectively) on day 0 of treatment from the mean tumor volume on day 19 (the last day all mice remained in the study). […]

[3] = Treatment-related toxicity (body weight, H&E histology of kidney, pancreas, liver); type: in vivo, athymic nude mice
Protocol: as §1

[4] = test system: PC-3 tumors; experiment: Tumor histology and Ki-67 immunostaining; type: in vivo, athymic nude mice
Protocol: The kidneys, pancreas, livers, and tumors of 4 control mice and 4 treated mice were harvested and fixed in neutral buffered formalin. After fixation and dehydration, tissue samples were embedded in paraffin, and tissue sections were then stained with either hematoxylin and eosin (H&E) or Ki-67 for microscopic examination. H&E staining of tissue samples was prepared by the Anatomic and Molecular Pathology Core Lab, Washington University in St Louis. Ki-67 immunostaining was performed on 5 µm tissue sections of PC-3 tumors. The slides were baked in 55 °C oven for 60 min. The sections were deparaffinized, and heat-induced antigen retrieval was performed in citrate buffer 0.1 M pH 6.0 at 92 °C. After 20 min, the slides were cooled in 4 °C fridge for 15 min. The sections were then blocked with Dako Endogenous Enzyme Block (Dako North America, Inc., Carpinteria, CA, USA) for 10 min and washed twice with Dako Wash Buffer 1X. The sections were blocked with 10% goat serum in PBS for another 45 min and washed 2 × 5 min with Dako Wash Buffer 1X. The slides were then rinsed and incubated with Ki-67 antibody (1:100 dilution) overnight at 4 °C. […] Staining results were assessed by Olympus fluorescent microscope (BX51) and the cell Sense software in a blinded manner.

[5] = Stability in PBS 1X; type: physicochemical; settings: 1:1 with radiolabeled complex, 37 °C, 96 h, moderate agitation, radio-TLC, 50 mM DTPA, triplicate
Protocol: Briefly, 100 µL of the radiolabeled complex was added to 100 µL PBS 1X or human serum (HSA […]) in triplicate. [^67Cu]Cu-SAR-BBN was incubated at 37 °C for 14, 24, 48, 72, and 96 h with moderate agitation. An aliquot (0.5 μL) was withdrawn at each specified time point. Radio-TLCs with a mobile phase of 50 mM DTPA were performed to evaluate the percentage of intact radiolabeled peptides.

Structure (SMILES): CC(C)C[C@H](NC(=O)C[C@H](O)[C@H](CC(C)C)NC(=O)[C@H](Cc1c[nH]cn1)NC(=O)CNC(=O)[C@@H](NC(=O)[C@H](C)NC(=O)[C@H](Cc1c[nH]c2ccccc12)NC(=O)[C@H](CCC(N)=O)NC(=O)[C@@H](Cc1ccccc1)NC(=O)CCOCCOCCOCCOCCNC(=O)CCCC(=O)NC12CNCCNCC(C)(CNCCNC1)CNCCNC2)C(C)C)C(N)=O [[^67Cu]Cu-SAR-BBN, metal not drawn]
- tissue uptake at 144 h ([1]; in vivo, Lung %ID/g): 0.68 %ID/g
- tissue uptake at 216 h ([1]; in vivo, Lung %ID/g): 0.32 %ID/g
- tissue uptake at 1 h ([1]; in vivo, Muscle %ID/g): 0.52 %ID/g
- tissue uptake at 2 h ([1]; in vivo, Muscle %ID/g): 0.25 %ID/g
- tissue uptake at 4 h ([1]; in vivo, Muscle %ID/g): 0.35 %ID/g
- tissue uptake at 6 h ([1]; in vivo, Muscle %ID/g): 0.59 %ID/g
- tissue uptake at 24 h ([1]; in vivo, Muscle %ID/g): 0.2 %ID/g
- tissue uptake at 72 h ([1]; in vivo, Muscle %ID/g): 0.27 %ID/g
- tissue uptake at 144 h ([1]; in vivo, Muscle %ID/g): 0.21 %ID/g
- tissue uptake at 216 h ([1]; in vivo, Muscle %ID/g): 0.15 %ID/g
- tissue uptake at 2 h ([1]; in vivo, Pancreas %ID/g): 14.7 %ID/g
- tissue uptake at 4 h ([1]; in vivo, Pancreas %ID/g): 5.48 %ID/g
- tissue uptake at 6 h ([1]; in vivo, Pancreas %ID/g): 3.38 %ID/g
- tissue uptake at 24 h ([1]; in vivo, Pancreas %ID/g): 0.55 %ID/g
- tissue uptake at 72 h ([1]; in vivo, Pancreas %ID/g): 0.75 %ID/g
- tissue uptake at 144 h ([1]; in vivo, Pancreas %ID/g): 0.39 %ID/g
- tissue uptake at 216 h ([1]; in vivo, Pancreas %ID/g): 0.22 %ID/g
- tissue uptake at 1 h ([1]; in vivo, Spleen %ID/g): 1.94 %ID/g
- tissue uptake at 2 h ([1]; in vivo, Spleen %ID/g): 1.27 %ID/g
- tissue uptake at 4 h ([1]; in vivo, Spleen %ID/g): 0.94 %ID/g
- tissue uptake at 6 h ([1]; in vivo, Spleen %ID/g): 0.9 %ID/g
- tissue uptake at 24 h ([1]; in vivo, Spleen %ID/g): 0.51 %ID/g
- tissue uptake at 72 h ([1]; in vivo, Spleen %ID/g): 0.74 %ID/g
- tissue uptake at 144 h ([1]; in vivo, Spleen %ID/g): 0.3 %ID/g
- tissue uptake at 216 h ([1]; in vivo, Spleen %ID/g): 0.14 %ID/g
- tissue uptake at 2 h ([1]; kidney, 2 h after i.v. injection of 0.37 MBq, mean, n = 5, read-out: Kidney %ID/g): 3.99 %ID/g
- tissue uptake at 4 h ([1]; kidney, 4 h after i.v. injection of 0.37 MBq, mean, n = 5, read-out: Kidney %ID/g): 3.48 %ID/g
- tissue uptake at 6 h ([1]; kidney, 6 h after i.v. injection of 0.37 MBq, mean, n = 5, read-out: Kidney %ID/g): 3.53 %ID/g
- tissue uptake at 24 h ([1]; kidney, 24 h after i.v. injection of 0.37 MBq, mean, n = 5, read-out: Kidney %ID/g): 2.37 %ID/g
- tissue uptake at 72 h ([1]; kidney, 72 h after i.v. injection of 0.37 MBq, mean, n = 5, read-out: Kidney %ID/g): 3.1 %ID/g
- tissue uptake at 144 h ([1]; kidney, 6 days after i.v. injection of 0.37 MBq, mean, n = 5, read-out: Kidney %ID/g): 1.37 %ID/g
- tissue uptake at 216 h ([1]; kidney, 9 days after i.v. injection of 0.37 MBq, mean, n = 5, read-out: Kidney %ID/g): 0.74 %ID/g
- reduction of activity circulating in the blood relative to the 1 h value ([1]; mouse, in vivo): over 70%
- rapid recurrence of tumor needing early sacrifice ([2]; 144 MBq over 3 weeks): no animals having a rapid recurrence
- median survival (time to tumor endpoint of 2500 mm^3) ([2]; six i.v. doses of 24 MBq, total 144 MBq, n = 12, study ended day 54, control 34.5 days, p = 0.0015): greater than 54 days
- histological changes in kidney, pancreas and liver vs control (H&E) ([3]; mouse, in vivo): no significant histological changes
- deaths or euthanasia not related to tumor volume ([3]; treated group, n = 12, censored in the survival analysis): one mouse from the [^67Cu]Cu-SAR-BBN group was euthanized due to tumor ulceration (day 38), and another two died due to unknown causes (day 5 and day 22)
- tumor necrosis (blinded review of tumor samples) ([4]; 4 tumors per group): more extensive areas of necrosis in three out of four tumors
- mean proliferation index (PI), Ki-67 ([4]; tumor areas without necrosis, immune infiltrate or host stroma, 4 tumors, control 38.1%, p = 0.26): 50.3%
- intact radiolabeled peptide in PBS 1X [5]: greater than 95%
